Source: US20200024330A1

What was measured:
Test in all cases: cell-based or functional assay
[1] = target: HIV-1 Env of isolate QH0692.42 (HIV-1)
[2] = target: HIV-1 JR-CSF Env P470A (HIV-1 (isolate JR-CSF)) (UniProt P20871)
[3] = target: HIV-1 JR-CSF Env N156A (HIV-1 (isolate JR-CSF)) (UniProt P20871)
[4] = target: HIV-1 Env of isolate MGRM-A-014 (clade A), on pseudovirus (HIV-1)
[5] = target: HIV-1 Env of isolate MGRM-A-012 (clade A), on pseudovirus (HIV-1)
[6] = target: HIV-1 Env of isolate MGRM-AE-008 (CRF01_AE), on pseudovirus (HIV-1)
[7] = target: HIV-1 JR-CSF Env Y177A (HIV-1 (isolate JR-CSF)) (UniProt P20871)
[8] = target: HIV-1 Env of isolate 92UG001 (HIV-1)
[9] = target: HIV-1 JR-CSF Env R480A (HIV-1 (isolate JR-CSF)) (UniProt P20871)
[10] = target: HIV-1 Env of isolate MGRM-F1-012 (subtype F), on pseudovirus (HIV-1)
[11] = target: HIV-1 Env of isolate MGRM-C-022 (HIV-1)
[12] = target: HIV-1 Env of isolate MGRM-C-019 (HIV-1)
[13] = target: HIV-1 Env of isolate MGRM-D-003 (HIV-1)
[14] = target: HIV-1 Env of isolate MGRM-Chronic-B-004 (HIV-1)
[15] = target: HIV-1 Env of isolate TRO.11 (HIV-1)
[16] = target: HIV-1 Env of isolate MG RM-A-006 (HIV-1)
[17] = target: HIV-1 Env of isolate 97ZA012 (HIV-1)
[18] = target: HIV-1 Env of isolate MGRM-A-009 (clade A), on pseudovirus (HIV-1)
[19] = target: HIV-1 Env of isolate MGRM-C-007 (HIV-1)
[20] = target: HIV-1 JR-CSF Env T162A (HIV-1 (isolate JR-CSF)) (UniProt P20871)
[21] = target: HIV-1 93UG077 envelope glycoprotein (Env) on pseudovirus (HIV-1)
[22] = target: HIV-1 APV6 envelope glycoprotein (Env) on pseudovirus (HIV-1)
[23] = target: HIV-1 CMU02 envelope glycoprotein (Env) on pseudovirus (HIV-1)
[24] = target: aMLV envelope on pseudovirus (negative control virus)

| Substance | IC50 [1] | Fold IC50 increase relative to wild-type [2] | Fold IC50 increase relative to wild-type [3] | IC50, single-round pseudovirus neutralization [4] | IC50, single-round pseudovirus neutralization [5] | IC50, single-round pseudovirus neutralization [6] | Fold IC50 increase relative to wild-type [7] | IC50 [8] | Fold IC50 increase relative to wild-type [9] | IC50, pseudovirus neutralization [10] | IC50 [11] | IC50 [12] | IC50 [13] | IC50 [14] | IC50 [15] | neutralization IC50 [16] | IC50 [17] | IC50, single-round pseudovirus neutralization [18] | IC50 [19] | Fold IC50 increase relative to wild-type [20] | further results |
| --- | --- | --- | --- | --- | --- | --- | --- | --- | --- | --- | --- | --- | --- | --- | --- | --- | --- | --- | --- | --- | --- |
| 5114_A19 (PGT-128) (antibody) | 0.029 µg/mL | 0.6 fold | 0.4 fold | 0.007 µg/mL | 0.025 µg/mL | > 50 µg/mL | 1.4 fold | > 50 µg/mL | 0.1 fold | 0.007 µg/mL | 0.042 µg/mL | 0.01 µg/mL | 0.019 µg/mL | 0.009 µg/mL | 0.018 µg/mL | > 50 µg/mL | 0.019 µg/mL | 0.005 µg/mL | 0.111 µg/mL | 1.1 fold |  |
| 5136_H01 (PGT-131) (antibody) | > 50 µg/mL | 1 fold | 1 fold | 15.4 µg/mL | > 50 µg/mL | > 50 µg/mL | 5.3 fold | > 50 µg/mL | 1.5 fold | > 50 µg/mL | 0.78 µg/mL | 0.021 µg/mL | 19.6 µg/mL | 0.04 µg/mL | 1.91 µg/mL | > 50 µg/mL | 1.81 µg/mL | 0.035 µg/mL | > 50 µg/mL | 0.6 fold |  |
| 5343_B08 (PGT-135) (antibody) | > 50 µg/mL | 0.8 fold | 0.3 fold | 0.636 µg/mL | > 50 µg/mL | > 50 µg/mL | 0.3 fold | > 50 µg/mL | 1.4 fold | 0.01 µg/mL | > 50 µg/mL | 0.264 µg/mL | > 50 µg/mL | > 50 µg/mL | 0.03 µg/mL | > 50 µg/mL | > 50 µg/mL | > 50 µg/mL | > 50 µg/mL | 0.9 fold |  |
| 5147_N06 (PGT-130) (antibody) | > 50 µg/mL | 2.4 fold | 1.5 fold | 0.161 µg/mL | > 50 µg/mL | > 50 µg/mL | 3.6 fold | > 50 µg/mL | 1 fold | > 50 µg/mL | 0.127 µg/mL | 0.01 µg/mL | 0.651 µg/mL | 0.01 µg/mL | 0.257 µg/mL | > 50 µg/mL | 1.32 µg/mL | 0.308 µg/mL | > 50 µg/mL | 0.6 fold | IC50 (ug/ml), neutralizing activity [21]: > 10 µg/mL; IC50 (ug/ml), neutralizing activity [22]: > 10 µg/mL; IC50 (ug/ml), neutralizing activity [23]: > 10 µg/mL; IC50 (ug/ml), neutralizing activity [24]: > 10 µg/mL |
